Results as given in the RNAGym collection of RNA variant scans (doi:10.1101/gr.219683.116).

B1: mRNA-splicing (parent)
chain: AGUUGCUGCUGGGAGCUCCAGCACAGUGAAAUGGACAGAAGGGCAGAGCAA

Variants of: B1
Experiment: exon inclusion enrichment index; higher = more inclusion; WT1 exon 5 minigene, HEK293

In order of rising “exon inclusion enrichment index” value:
1. C6A U7A G8C C9U U10A  0.0222
2. C6A U7A G8A U10A  0.0891
3. C6A U7C C9A U10C A35G C36U  0.107
4. C6A U7A C9A U10A U32G G33A  0.11
5. C6A U7A C9A U10A U32G G33U  0.178
6. C6A U7A C9A U10A U27G  0.189
7. C6A U7A U10A  0.234
8. C6A U7A C9A U10A U27A G28U  0.247
9. C6A U7C C9A U10C A39U  0.343
10. C6A U7A G8C U10A  0.371
11. C6A U7C C9A U10C C18A C19U  0.374
12. C6A U7A C9A U10A U17G C18G  0.391
13. C6A U7A C9A U10A U27C G28U  0.4
14. C6A U7A C9A U10A U17C  0.424
15. C6A U7A C9A U10A U17A C18A  0.427
16. C6A U7A C9A U10A U17A C18U  0.445
17. C6A U7A C9A U10A U17G C18U  0.46
18. C6A U7A G8U C9A  0.467
19. C6A U7A C9A U10A U17C C18A  0.476
20. C6A U7A C9A U10A U17C C18U  0.491
21. C6A U7C C9A U10C A39G A40U  0.497
22. C6A U7A C9A U10A U17A C18G  0.498
23. C6A U7A C9A U10G  0.498
24. C6A U7A C9A U10A U17G  0.51
25. C6A U7C C9A U10C A39G A40G  0.569
26. C6A U7A C9A U10A U17G C18A  0.619
27. C6A U7A C9A U10A U17A  0.63
28. C6A U7A C9A U10A U17C C18G  0.655
29. C6A U7A C9A U10A U32G G33C  0.75
30. C6A U7C C9A U10C A35G C36G  0.776
31. C6A U7A G8C C9G U10A  0.781
32. C6A U7A C9A U10A U27A G28C  0.818
33. C6A U7A C9A U10A U27A G28A  0.824
34. C6A U7A U10G  0.84
35. C6A U7C C9A U10C A47G  0.844
36. C6A U7C C9A U10C C22G A23U  0.87
37. C6A U7A C9A U10A U27C G28A  0.886
38. C6A U7A C9A U10A U27A  0.945
39. C6A U7C C9A U10C C19A A20G  0.968
40. C6A U7C C9A U10C A23U C24U  0.978
41. C6A U7C C9A U10C C18A C19G  0.998
42. C6A U7A C9A U10G G11U  1.14
43. C6A U7A C9A U10G G11A  1.24
44. C6A U7C C9A U10C C18G C19U  1.28
45. C6A U7C C9A U10A  1.36
46. C6A U7A C9A U10A U27C G28C  1.36
47. C6A U7C C9A U10C A39C  1.37
48. C6A U7C C9A U10C C18A C19A  1.44
49. C6A U7C C9A U10C C24U  1.66
50. C6A U7C C9A U10C A37G G38U  1.68
51. C6A U7C C9A U10C A14C G15C  1.7
52. C6A U7C C9A U10C C22G A23C  1.74
53. C6A U7C C9A U10C A29U  1.74
54. C6A U7C C9A U10C A40G G41A  1.83
55. C6A U7C C9A U10C A40C G41A  1.84
56. C6A U7C C9A U10C A40C G41U  1.87
57. C6A U7C C9A U10C C36G A37U  1.89
58. C6A U7C C9A U10C A23U C24A  1.89
59. C6A U7A C9A U10C G11A  1.91
60. C6A U7C C9A U10C A14U  1.94
61. C6A U7A C9A U10G G11C  1.95
62. C6A U7C C9A U10C C36U A37U  1.97
63. C6A U7A C9A U10A U27C  1.97
64. C6A U7C C9A U10C A29U A30U  1.98
65. C6A U7C C9A U10A G11A  1.98
66. C6A U7C C9A  1.99
67. C6A U7C C9A U10C A14U G15A  2.06
68. C6A U7C C9A U10C C19A A20U  2.07
69. C6A U7C C9A U10C A14U G15U  2.08
70. C6A U7C C9A U10C C22U A23C  2.11
71. C6A U7C C9A U10C A14C G15A  2.13
72. C6A U7C C9A U10C A47C G48A  2.16
73. C6A U7C C9A U10C A23C C24U  2.26
74. C6A U7C C9A U10C A35G C36A  2.29
75. C6A U7C C9A U10C A47U G48C  2.31
76. C6A U7C C9A U10C A14C G15U  2.32
77. C6A U7C C9A U10C C16A U17G  2.33
78. C6A U7C C9A U10C A39G  2.38
79. C6A U7C C9A U10C C19G A20G  2.38
80. C6A U7C C9A U10C C36U A37C  2.39
81. C6A U7C C9A U10C A25U G26U  2.49
82. C6A U7C C9A U10C C16G  2.49
83. C6A U7C C9A U10A G11U  2.49
84. C6A U7C C9A U10C C22U A23U  2.51
85. C6A U7C C9A U10C A30U  2.51
86. C6A U7A U10C  2.53
87. C6A U7C C9A U10C C22G A23G  2.55
88. C6A U7C C9A U10C A40G G41U  2.58
89. C6A U7A C9A U10C  2.59
90. C6A U7C C9A U10C A47U G48U  2.6
91. C6A U7C C9A U10C A40U  2.61
92. C6A U7C C9A U10C C18A  2.64
93. C6A U7C C9A U10C A14U G15C  2.67
94. C6A U7C C9A U10C A47U G48A  2.69
95. C6A U7C C9A U10C C18U  2.7
96. C6A U7C C9A U10C C19A A20C  2.73
97. C6A U7C C9A U10C A29C A30U  2.76
98. C6A U7C C9A U10C A30U A31U  2.77
99. C6A U7C C9A U10A G11C  2.78
100. C6A U7C C9A U10C A47C G48C  2.81
101. C6A U7C C9A U10C A30U A31C  2.83
102. C6A U7C C9A U10C C22U  2.84
103. C6A U7C C9A U10C A47U  2.86
104. C6A U7C C9A U10C C24U A25U  2.88
105. C6A U7C C9A U10C A45G G46U  2.89
106. C6A U7C C9A U10C C36U A37G  2.91
107. C6A U7C C9A U10C C24A  2.94
108. C6A U7C C9A U10C A29U A30C  2.97
109. C6A U7C C9A U10C A37G G38A  3
110. C6A U7C C9A U10C A31U  3.04
111. C6A U7C C9A U10C C18G  3.06
112. C6A U7C C9A U10C A14C  3.07
113. C6A U7C C9A U10C A47C G48U  3.09
114. C6A U7C C9A U10C A30C A31U  3.15
115. C6A U7C C9A U10C C22A  3.18
116. C6A U7C C9A U10C C16A U17C  3.21
117. C6A U7C C9A U10C A37G G38C  3.21
118. C6A U7C C9A U10C A29C  3.21
119. C6A U7C C9A U10C C19G A20U  3.25
120. C6A U7C C9A U10C A25U G26C  3.26
121. C6A U7C C9A U10C A40G  3.27
122. C6A U7C C9A U10C A47C  3.27
123. C6A U7C C9A U10C A29G  3.29
124. C6A U7C C9A U10C A30C  3.29
125. C6A U7C C9A U10C A45G G46C  3.3
126. C6A U7C C9A U10C A40C  3.36
127. C6A U7A C9A U10C G11U  3.37
128. C6A U7C C9A U10C C22U A23G  3.38
129. C6A U7C C9A U10C C16A U17A  3.43
130. C6A U7C C9A U10C A23C C24A  3.49
131. C6A U7C C9A U10C A25U G26A  3.54
132. C6A U7C C9A U10C C16U  3.55
133. C6A U7C C9A U10C A29U A30G  3.55
134. C6A U7C C9A U10C A40C G41C  3.56
135. C6A U7C C9A U10C A40G G41C  3.6
136. C6A U7C C9A U10C C24G  3.61
137. C6A U7C C9A U10C A30G  3.61
138. C6A U7C C9A U10C  3.63
139. C6A U7C C9A U10C A29C A30C  3.72
140. C6A U7C C9A U10C A30U A31G  3.73
141. C6A U7C C9A U10C A31G  3.73
142. C6A U7C C9A U10C A39G A40C  3.81
143. C6A U7C C9A U10C C16A  3.82
144. C6A U7C C9A U10C C18G C19A  3.84
145. C6A U7C C9A U10C C18G C19G  3.85
146. C6A U7C C9A U10C C19G A20C  3.87
147. C6A U7C C9A U10C A25C G26U  3.89
148. C6A U7C C9A U10C C22G  3.9
149. C6A U7C C9A U10C C24U A25G  3.92
150. C6A U7C C9A U10C A30C A31G  3.94
151. C6A U7C C9A U10C A31C  3.96
152. C6A U7C C9A U10C A23U C24G  3.98
153. C6A U7C C9A U10C A25G G26C  4.03
154. C6A U7C C9A U10C A25G G26U  4.03
155. C6A U7C C9A U10C C44A A45C  4.04
156. C6A U7C C9A U10C A29C A30G  4.07
157. C6A U7C C9A U10C A25C G26C  4.09
158. C6A U7C C9A U10C C24U A25C  4.21
159. C6A U7A C9A U10C G11C  4.28
160. C6A U7C C9A U10C A30C A31C  4.36
161. C6A U7C C9A U10C A23C C24G  4.61
162. C6A U7C C9A U10C A14G  4.78
163. C6A U7C C9A U10C C44A A45G  4.86
164. C6A U7C C9A U10C A25C G26A  4.93
165. C6A U7C C9A U10C A45G G46A  4.93
166. C6A U7C C9A U10C A25G G26A  5.01
167. C6A U7C C9A U10C C44A A45U  5.42
